Consider 28 sequences from the domain aggregation screens of Martell et al. (2025).

The data set in a line: soluble fraction after stress (log2 fold change); higher = more stays soluble; pooled small domains, quantitative proteomics. The settings on record: stress: pH 4. In short, it runs like this:
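How much of each domain stays soluble after acid stress, expressed as a fold change, is used to gauge aggregation propensity. Pooled custom libraries of small domains underwent pH 4 stress before high-throughput quantitative proteomics. A higher log2 value means more of the domain stayed soluble.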

Turning to “HMDAKIKDYADAYAKMDPQQAASLFNNMTTGSLDLVAKILENIPANKRAAILEKMDVNAAAQVTEKMR”, the “soluble fraction (log2)” value is 0.188.

In the case of “HMDAKSRFQEWVQAETGITPTYRIIGDSGPDHAKTFIAQVLLGERVVGEGVGSSKRAAEQAAAQAALAAM”, the “soluble fraction (log2)” value is -0.346.

On to “HMDAMMQRLERLKELASSADGSKDYLILGPLRRDLAKLMALEDPKLRQGAEELDRKILAILS”, for which the “soluble fraction (log2)” value is -0.437.

“HMDAPHPSVVQVYFESRDRSWTYYNDRFDLHEGDLVYVEGKLEGVRGRVVEVSYNFRIKLADYKRVIAVA”: the “soluble fraction (log2)” value was -0.122.

“HMDASSAVQFGSLLRDARRRQGLSQAELGGDKYSGSYISHLESGRRVATPEVIEFLSRRLGVSPLEWGVS”: the “soluble fraction (log2)” value is -0.026.

“HMDASSTGFLGKHVQIVGLVSQPHLNGRRGVASRFDSNRRRYLVRLDEIDGHAEVVAFRPDNLVLSNLL”: the “soluble fraction (log2)” value is -0.0982.

For the sequence “HMDASVTIEQVERMVQANVSDDVIISQLQGRGAAQNLSTDDIINLTQKGISAEVIKAYQSAG”, the “soluble fraction (log2)” value is -0.934.

For “HMDAVLMEYDRLLALELTEDPDVYQDLLDKVREQSLGADGRVTDKYREKFDAVATRFDDYEDNYQW”, the “soluble fraction (log2)” value is -0.62.

On to “HMDAVQAGKRVLIVDDLIATGGTAKAATDLIEKAGGTVVGFSFVMRLDGLDGLDKLDGKPSSSLIAMP”, for which the “soluble fraction (log2)” value was -0.0677.

Regarding “HMDAYMGEAKDEETFAEEYLNDSGLLNEIPESVARYFDIVAYARDLLIGDFSLHDGHVFNMT”, the “soluble fraction (log2)” value is -0.377.

For the sequence “HMDDAFLNKEMLKQALENLNEREKKLIYLRFYEGLTQKEIADRLSLSQMHVSRLLNESLNKLRRKI”, the “soluble fraction (log2)” value was -0.0579.

Regarding “HMDDATDLPYQEFRTQVSDGQVKIAQFNNNTGKITFESISGDKFKTSGPLELSSDDERLFLENIEDFKFFT”, the “soluble fraction (log2)” value is -1.1.

Consider “HMDDATDVPYQEFRTQVTSGQVEIAQFNNNTGKISFQSTSGEKFETSGPLELSSDDERLFLENIEDFKFFT”, for which the “soluble fraction (log2)” value is -1.63.

“HMDDATIKVNIAAKFLNAGNNLFVDIDTTVLEGRVLLTGLVDTQEVRIDAVRLVWEVEGIREVINEIEIG”: the “soluble fraction (log2)” value is -2.1.

With “HMDDATTQLADRLLDLRRKAGYSQEQLADLLGVSRQAISKWEGAQGRPEVDNVVKLAQIYRVSTDFILTGS”, the “soluble fraction (log2)” value is -0.656.

As for “HMDDAVSHPDAGHIVTVTKVSADGTAEVMYRGASWRAKTADGSPLTAGSARIVRVDGAALVVEP”, the “soluble fraction (log2)” value was 0.116.

For the sequence “HMDDDDPDQEIAQYYEKLRAMNPDEETKQKLSDEINKLSKMMYSSQEAMVSRNYLDTVFSLPWHQF”, the “soluble fraction (log2)” value is -1.37.

On to “HMDDEELDALKGIPANEYTQEQIKQISEVFHTLQKNEVKDWLNSLQLRNIELPFELRNEVFSQ”, for which the “soluble fraction (log2)” value was -0.43.

“HMDDFPLKRGSKGNRVTLLQNALVKKYGAGILPKYGVDGMFGKEVEAALVHAKIPTTINEANYTKIV”: the “soluble fraction (log2)” value was found to be 0.104.

With “HMDDFSETLLQYIKEKGGHISLNDKTDAGVIYETFGVSKKTFKKAVGDLYKKRLIVLEDTGIRL”, the “soluble fraction (log2)” value stood at 0.0848.

On to “HMDDHLSFLAARLPDGASFDTDFDALGIDSFGMIALRAEVEERLGEQIADSDWTKVERPSEILAMLERK”, for which the “soluble fraction (log2)” value was -1.76.

Turning to “HMDDLATAYKAMGVDASISDKDLKRAYRKLMSQHHPDKMIAKGVPADMVAMATEKTQEIQAAYDLIERSR”, the “soluble fraction (log2)” value was found to be 0.0752.

For the sequence “HMDDLIIQIELKQEGLEITGLKVLLKEDSVIDEQVKQTIRRKIERFLVNLYGNPNVYVSKFSMGI”, the “soluble fraction (log2)” value is -1.36.

Take “HMDDLTTASIKQQLKALIDEENKNKPLSDQKLTDALKAQGIDISRRTVAKYREAMNIPGSSKRKRF”: the “soluble fraction (log2)” value worked out at 0.0697.

Turning to “HMDDMVLEIGPGIGTMTQYLAEAAGKVVAVEIDRNLLPILQETLADYDNVKVIHADVLSLDLEKLVQEE”, the “soluble fraction (log2)” value is -0.868.

Consider “HMDDPDALITDSQLKAIHVLLGKLKIDDNLKHAYIADVLQLKDIPETLKTLTKHQGSTIIERLNLLIKDA”, for which the “soluble fraction (log2)” value was -0.0657.

As for “HMDDPLSQLTPREREVLELMASGASNQGIADALVITVRAVEKYVSSIFGKLGLPSTGSESRRVLAVLTFLR”, the “soluble fraction (log2)” value is -1.32.

For “HMDDPYAGLRQRAYLFLRERDGAVPEEELIEHVFGSSGNPALWRPLLRQVLGADDRLDLRADGYWALRG”, the “soluble fraction (log2)” value is -0.839.
